Test results: PMC12117459

Experiments:
Assay in all cases: NMR
Lys55 = conditions: 25 °C; <60 mM (no added salt; only HCl/NaOH used for pH adjustment); none (water without buffer); folded dimer, free protein, about 1.5 mM
Lys30 = conditions: 25 °C; <60 mM (no added salt; only HCl/NaOH used for pH adjustment); none (water without buffer); folded dimer, free protein, about 1.5 mM
Lys6 = conditions: 25 °C; <60 mM (no added salt; only HCl/NaOH used for pH adjustment); none (water without buffer); folded dimer, free protein, about 1.5 mM
Tyr5 = conditions: 25 °C; <60 mM (no added salt; only HCl/NaOH used for pH adjustment); none (water without buffer); folded dimer, free protein, about 1.5 mM
Tyr47 = conditions: folded dimer
Lys56 = conditions: 25 °C; <60 mM (no added salt; only HCl/NaOH used for pH adjustment); none (water without buffer); folded dimer, free protein, about 1.5 mM
Lys32 = conditions: 25 °C; <60 mM (no added salt; only HCl/NaOH used for pH adjustment); none (water without buffer); folded dimer, free protein, about 1.5 mM
Lys45 = conditions: 25 °C; <60 mM (no added salt; only HCl/NaOH used for pH adjustment); none (water without buffer); folded dimer, free protein, about 1.5 mM
Tyr16 = conditions: 25 °C; <60 mM (no added salt; only HCl/NaOH used for pH adjustment); none (water without buffer); folded dimer, free protein, about 1.5 mM
Lys12 = conditions: 25 °C; <60 mM (no added salt; only HCl/NaOH used for pH adjustment); none (water without buffer); folded dimer, free protein, about 1.5 mM
Lys53 = conditions: 25 °C; <60 mM (no added salt; only HCl/NaOH used for pH adjustment); none (water without buffer); folded dimer, free protein, about 1.5 mM
His31 = His31 (UniProt position 31, TIGIGHLLTKS); conditions: cited from earlier work

| Substance | pKa (Lys55) | pKa (Lys30) | pKa (Lys6) | pKa (Tyr5) | pKa (Tyr47; 25 °C, <60 mM (no added salt; only HCl/NaOH used for pH adjustment), none (water without buffer), free protein, about 1.5 mM) | pKa (Tyr47; cited from earlier work) | pKa (Lys56) | pKa (Lys32) | pKa (Lys45) | pKa (Tyr16) | pKa (Lys12) | pKa (Lys53) | pKa (His31) |
| --- | --- | --- | --- | --- | --- | --- | --- | --- | --- | --- | --- | --- | --- |
| Ribbon-helix-helix (rhh) protein ORF56 from plasmid pRN1 (Sulfolobus islandicus (plasmid pRN1)) | 11.08 ± 0.04 | 10.86 ± 0.01 | 10.79 ± 0.01 | 9.85 ± 0.01 | >13.7 | above pH 13 | 10.96 ± 0.03 | 10.48 ± 0.01 | 11.27 ± 0.02 | 9.85 ± 0.01 | 10.54 ± 0.01 | 10.25 ± 0.02 |  |
| T4 lysozyme (Enterobacteria phage T4 (Tequatrovirus T4)) |  |  |  |  |  |  |  |  |  |  |  |  | 9 |
